Laboratory results from PMC10110466 (Nature biotechnology, 2022).

Biological target: T1, soluble human IL-2Rβγ complex (human, UniProt P31785 23-262; P14784 27-240, biotin)
T1 sequence (looked up) 1: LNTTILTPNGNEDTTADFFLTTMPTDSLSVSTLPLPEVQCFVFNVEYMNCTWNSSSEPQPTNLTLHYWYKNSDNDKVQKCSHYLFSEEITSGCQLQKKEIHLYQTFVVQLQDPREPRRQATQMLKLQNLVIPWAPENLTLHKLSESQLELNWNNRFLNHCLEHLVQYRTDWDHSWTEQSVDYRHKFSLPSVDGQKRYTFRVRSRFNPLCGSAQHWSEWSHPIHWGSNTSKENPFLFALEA
T1 sequence (looked up) 2: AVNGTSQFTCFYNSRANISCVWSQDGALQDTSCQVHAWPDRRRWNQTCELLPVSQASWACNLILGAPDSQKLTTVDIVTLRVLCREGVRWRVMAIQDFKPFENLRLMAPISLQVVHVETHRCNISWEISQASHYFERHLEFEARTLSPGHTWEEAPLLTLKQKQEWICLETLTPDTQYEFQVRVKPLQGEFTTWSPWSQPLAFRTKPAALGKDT
Assay: cell-based or functional assay

STAT5 phosphorylation in YT-1 human NK cells, EC50: > 40 µM
Binder: PKKKIQLHAEHALYDALMILNIVKTNS [Neo2A]
